The assay addresses T1, MAGE-A3 peptide on HLA-A*02:01 (human).
T1 peptide: KVAELVHFL
In words: killing.

B1: MAGE-A3 (112-120) TCR (MAGE-A3-112-120-Va / MAGE-A3-112-120-Vb) (TCR, V domains shown)
Valpha: GDSVTQTEGLVTLTEGLPVMLNCTYQTIYSNPFLFWYVQHLNESPRLLLKSFTDNKRTEHQGFHATLHKSSSSFHLQKSSAQLSDSALYYCAFDTNTYKVIFGKGTHLHVLP
Vbeta: DMKVTQMPRYLIKRMGENVLLECGQDMSHETMYWYRQDPGLGLQLIYISYDVDSNSEGDIPKGYRVSRKKREHFSLILDSAKTNQTSVYFCASSSTNTEVFFGKGTRLTVL
On to B1, for which the binding result is “recognises”.

Values taken from patent US20240390496A1 (published 2024).
